Laboratory results taken from patent US12209122.

Target: the two scFvs (16-22-H05-sc02 and 16-22-H05-sc04)
Assay: competition ELISA, coated scFv, biotinylated TNFα, unlabeled TNFβ against unlabeled TNFα

selectivity for binding to TNFα over TNFβ (fold): > 20000 fold
B1: recombinant human TNFβ (Peprotech, Cat. No. 300-01B) (ligand, UniProt P01374 35-205, looked up)
chain: LPGVGLTPSAAQTARQHPKMHLAHSTLKPAAHLIGDPSKQNSLLWRANTDRAFLQDGFSLSNNSLLVPTSGIYFVYSQVVFSGKAYSPKATSSPLYLAHEVQLFSSQYPFHVPLLSSQKMVYPGLQEPWLHSMYHGAAFQLTQGDQLSTHTDGIPHLVLSPSTVFFGAFAL
